Key:
Tau-441 (P301L) = Tau-441 (P301L) (UniProt P10636)
Chain of Tau-441 (P301L) (P10636 other isoform, or with tags, fused parts or gaps P301L): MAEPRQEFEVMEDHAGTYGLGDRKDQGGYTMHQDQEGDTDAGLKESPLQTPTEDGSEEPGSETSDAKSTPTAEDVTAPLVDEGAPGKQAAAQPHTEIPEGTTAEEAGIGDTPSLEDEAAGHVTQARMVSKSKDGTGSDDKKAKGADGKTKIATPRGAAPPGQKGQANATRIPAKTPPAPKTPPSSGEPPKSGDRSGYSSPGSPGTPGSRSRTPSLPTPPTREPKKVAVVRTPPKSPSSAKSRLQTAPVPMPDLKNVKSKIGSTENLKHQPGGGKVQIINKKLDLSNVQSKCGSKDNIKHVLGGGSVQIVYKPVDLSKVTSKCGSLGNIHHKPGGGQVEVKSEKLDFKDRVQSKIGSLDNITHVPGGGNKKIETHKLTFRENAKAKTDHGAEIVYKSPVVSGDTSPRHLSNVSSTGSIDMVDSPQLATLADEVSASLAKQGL

B1: cathepsin G (enzyme, UniProt P08311 21-244, looked up, species assumed)
Cathepsin G: IIGGRESRPHSRPYMAYLQIQSPAGQSRCGGFLVREDFVLTAAHCWGSNINVTLGAHNIQRRENTQQHITARRAIRHPQYNQRTIQNDIMLLQLSRRVRRNRNVNPVALPRAQEGLRPGTLCTVAGWGRVSMRRGTDTLREVQLRVQRDRQCLRIFGSYDPRRQICVGDRRERKAAFKGDSGGPLLCNNVAHGIVSYGKSSGVPPEVFTRVSSFLPWIRTTMRS
modifications: immobilized
Q: With B1 as the protein, how does the “casein digestion by resin-immobilized protease, fluorescence (RFU) at 5 and 60 min” value (Bodipy-labelled casein) read?
A: bar at 5 min about 2.3x10^7 RFU, bar at 60 min about 5.3x10^7 RFU; highest of the three groups; no control bar drawn

Q: And the “casein digestion, fluorescence (RFU) of Bodipy-labelled casein after 1 h against protease concentration in solution” value (Bodipy-labelled casein)?
A: near 0 up to about 0.1 ug/ml, rises to about 3.4x10^7 RFU; the last two points (about 50 and 100 ug/ml) are at the same height

Q: What about the “casein-digestion activity, immobilized protease, fluorescence” value (Bodipy-labelled casein) of the same protein?
A: exhibited casein-digestion activity at 5 minute and 60 minute incubation times

Q: What about the “casein-digestion activity, protease in solution, fluorescence” value (Bodipy-labelled casein) of the same protein?
A: exhibited casein-digestion activity having linear reaction kinetics up to approximately 6 µg/ml of each protease

Q: What about the “digestion on immobilized protease column, SDS-PAGE silver stain (FIG. 3A)” value (Tau-441 (P301L)) of the same protein?
A: rapidly degraded

Q: And the “loss of the Tau-441 (P301L) band on a silver-stained SDS-PAGE gel after incubation on the protease column” value (Tau-441 (P301L))?
A: no band in the Cathepsin G column lanes at 2, 10 and 20 min; the No protease column lanes show a strong band of equal strength at 2, 10 and 20 min

Source: patent US20210145944
